Measured values taken from patent US10400249B2, “HPPD variants and methods of use” (priority 2014, dated 2019).
Where a chain is given by its changes, count along the chain named. Numbers in names are those of the source.

B1: PfEvo43: PfHPPD variant E335P, G336F (protein)
chain: MADLYENPMGLMGFEFIEFASPTPGTLEPIFEIMGFTKVATHRSKNVHLYRQGEINLILNNEPNSIASYFAAEHGPSVCGMAFRVKDSQKAYNRALELGAQPIHIDTGPMELNLPAIKGIGGAPLYLIDRFGEGSSIYDIDFVYLEGVERNPVGAGLKVIDHLTHNVYRGRMVYWANFYEKLFNFREARYFDIKGEYTGLTSKAMSAPDGMIRIPLNEESSKGAGQIEEFLMQFNGEGIQHVAFLTDDLVKTWDALKKIGMRFMTAPPDTYYEMLEGRLPDHGEPVDQLQARGILLDGSSVEGDKRLLLQIFSETLMGPVFFEFIQRKGDDGFGPFNFKALFESIERDQVRRGVLTAD
modifications: HPPD variant - PfEvo43
notes: PfHPPD variant E335P, G336F
B2: PfEvo44: PfHPPD variant E335P, G336Y (protein)
chain: B1 chain with F336Y
modifications: HPPD variant - PfEvo44
notes: PfHPPD variant E335P, G336Y

What was measured:
maize T0 events = experiment: greenhouse spray test of maize T0 events for tolerance to Cmpd. 4; format: in vivo; details: 25 g AI/ha
soybean shoots = experiment: soybean transformation, greening or bleaching of shoots on isoxaflutole or tembotrione selection; format: in vivo; details: selection amount of herbicide
Excerpt: Soybean transformation is achieved using methods well known in the art, such as the one described using the Agrobacterium tumefaciens mediated transformation soybean half-seed explants using essentially the method described by Paz et al. (2006), Plant cell Rep. 25:206. Transformants were identified using tembotrione or isoxaflutole as selection marker. The appearance of green shoots was observed, and documented as an indicator of tolerance to the herbicide isoxaflutole or tembotrione.

[1] = system: Pseudomonas fluorescens HPPD protein; experiment: brown color assay: HPPD extracts spotted on solid media containing tyrosine and an HPPD inhibitor; format: biochemical; details: TBT, DKN and mesotrione 500-2000 uM, compared with PfHPPD and PfEvo33
Protocol: A specific, although non-limiting, type of assay that can be used to evaluate the HPPD sequences of the invention is a colorimetric assay. In this assay, a YT-broth-type culture medium with 1% agarose, 5 mM L-Tyrosine and 42 mM Succinate, which contains the selection agent for the vector pSE420 (Invitrogen, Karlsruhe, Germany) or a modified version of pSE420 (pSE420(RI)NX) is poured into deep well plates. E. coli culture in the exponential growth phase which contains the vector pSE420-HPPDx (HPPDx means any gene coding for a putative HPPD enzyme/protein) is applied to each well.
The HPPD PfEvo33 mutant (described in International Patent Application No PCT/US2013/59598 (filed on Sep. 13, 2013) and set forth herein as SEQ ID NO:5) was mutagenized at positions 334 and 336. Saturated mutagenesis of these positions was carried out using the QUIKCHANGE® lightning kit. Mutants were pooled and transformed into DH5alpha E. coli cells. Six hundred individual clones were screened for tolerance to the HPPD inhibitor tembotrione (TBT). The clones were grown in LB media plus kanamycin at 37 degrees C. in a shaker until an OD600 nm of 0.3 was reached. Cultures were then switched to 30 degrees C. and incubated for an additional 17 hours. Cultures were spun down and cell pellets resuspended in 10 mM Hepes/KOH pH 7.6, 4 mM MgCl2, 1 mM DTT. […]
The mutants were analyzed using a brown color assay. […]

[2] = system: Pseudomonas fluorescens HPPD protein; experiment: OD assay: HPPD activity and pI50 from HPP remaining after derivatisation with DNP; format: biochemical; details: for Activity DeltaE/24 min μg Protein: HPPD enzyme activity of the clone; for tolerance (pI50) DKN: inhibitor diketonitrile (DKN), negative log of molar concentration; for tolerance (pI50) MST: inhibitor mesotrione (MST)
In short: (§1)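 Purified Pseudomonas fluorescens HPPD, room temperature. OD assay: 50 mM Tris-HCl pH 7.8, 0.5 mM HPP, 10 mM ascorbate, catalase, 24 min, remaining HPP derivatised with DNP, read at 405 nm, inhibitor 5.0×10^−6 to 5.0×10^−4 M. HGD assay: 200 mM Tris-HCl pH 7.6, 600 μM HPP, 20 μM FeSO4, coupled HGA dioxygenase, initial rates at 318 nm, inhibitor ≤100 μM, time-course gives inhibition type; pI50 from 4-parameter fits.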

[3] = system: Pseudomonas fluorescens HPPD protein; experiment: HGD assay: HPPD activity coupled to HGA dioxygenase, pI50 and type of inhibition (time-course); format: biochemical; details: for tolerance (pI50) DKN: inhibitor diketonitrile (DKN); for tolerance (pI50) DKN / tolerance (pI50) MST / tolerance (pI50) TBT: HGD assay; for tolerance (pI50) MST: inhibitor mesotrione (MST); for tolerance (pI50) TBT: inhibitor tembotrione (TBT)
In short: as §1

T0 soybean plants = experiment: greenhouse spray test of T0 soybean plants for tolerance to mesotrione; format: in vivo; details: mesotrione 3X field rate, 316 grams AI per hectare, seven days after treatment
Protocol: T0 soybean plants expressing an HPPD inhibitor tolerant enzyme of the present invention, along with a gene conferring tolerance to glyphosate and a gene conferring tolerance to glufosinate or having a “plant expression cassette”, which includes only an HPPD inhibitor tolerant enzyme of the present invention, were tested for tolerance to mesotrione. Prior greenhouse trials with the transgenic plants, soy transformants were routinely analyzed for the expression and presence of the transgenes using the ELISA protein detection method (see detailed description under item D and H). Only plants recovering in the selection media and having a detectable HPPD transgene protein expression were used for the herbicide tolerance analysis. A DeVries Tracker Sprayer was calibrated prior to each spraying. The chemical formulation used for mesotrione (MST) testing was Callisto® 4 SC formulation supplemented with ammonium sulfate and methylated rape seed oil (Actirob). Spray tests were conducted using 3× the field rate (equivalent to 9 fluid ounce per acre of the same herbicide formulation that containing 40% the active ingredient (AI), mesotrione), which equals 316 grams AI per hectare. Tolerance was evaluated one week after spraying. […] A tolerance rating of “0” was assigned to plants that their shoot apexes, newly emerged trifoliates and some axillary buds were completely bleached. A rating of “1” was assigned to plants having slight tolerance, i.e., the newest plant shoot tissues had some green leaves and are not bleached completely. A rating of “2” was assigned to plants showing moderate tolerance, i.e., more than 50% of the leaf area of the top three trifoliates showing no chlorosis or bleaching damage. A rating of “3” was assigned to plants showing nearly perfect tolerance, i.e., less than 10% of the leaf area showing chlorosis or very slight bleaching.

[4] = HT-single plant expression cassette
[5] = HT-triple plant expression cassette

Row | Molecule | appearance of wild-type soybean shoots treated with the herbicide (soybean shoots) | brown color formation in presence of HPPD inhibitors [1] | Activity DeltaE/24 min μg Protein [2] [DeltaE/24 min μg Protein] | tolerance (pI50) DKN [2] | tolerance (pI50) MST [2] | mechanism of inhibition by diketonitrile (DKN), time-course of inhibition [3] | mechanism of inhibition by mesotrione (MST), time-course of inhibition [3] | mechanism of inhibition by tembotrione (TBT), time-course of inhibition [3] | tolerance (pI50) DKN [3] | tolerance (pI50) MST [3] | tolerance (pI50) TBT [3] | Number of T0 soybean plants with herbicide tolerance rating 0 (completely bleached) (T0 soybean plants; [4]) | Number of T0 soybean plants with herbicide tolerance rating 1 (slight tolerance) (T0 soybean plants; [4]) | Number of T0 soybean plants with herbicide tolerance rating 2 (moderate tolerance) (T0 soybean plants; [4]) | Number of T0 soybean plants with herbicide tolerance rating 3 (nearly perfect tolerance) (T0 soybean plants; [4]) | Number of T0 soybean plants with herbicide tolerance rating 0 (completely bleached) (T0 soybean plants; [5]) | Number of T0 soybean plants with herbicide tolerance rating 1 (slight tolerance) (T0 soybean plants; [5]) | Number of T0 soybean plants with herbicide tolerance rating 2 (moderate tolerance) (T0 soybean plants; [5]) | Number of T0 soybean plants with herbicide tolerance rating 3 (nearly perfect tolerance) (T0 soybean plants; [5]) | further results
1 | CSc1c(C(F)(F)F)ccc(C(=O)Nc2nnnn2C)c1Cl [Cmpd. 4, 2-chloro-3-(methylsulfanyl)-N-(1-methyl-1H-tetrazol-5-yl)-4-(trifluoromethyl)benzamide] |  |  |  |  |  |  |  |  |  |  |  |  |  |  |  |  |  |  |  | leaf damage of control maize T0 events expressing EPSPS only, no HPPD variant (maize T0 events): 100%; leaf damage of non-transformed maize plants (maize T0 events): 100%
2 | CS(=O)(=O)c1cc(C(F)(F)F)ccc1C(=O)c1cnoc1C1CC1 [isoxaflutole, (5-cyclopropyl-4-isoxazolyl)[2-(methylsulfonyl)-4-(trifluoromethyl)phenyl]methanone] | entirely bleached |  |  |  |  |  |  |  |  |  |  |  |  |  |  |  |  |  |  | 
3 | CS(=O)(=O)c1ccc(C(=O)C2C(=O)CCCC2=O)c(Cl)c1COCC(F)(F)F [tembotrione, 2-[2-chloro-4-(methylsulfonyl)-3-[(2,2,2,-trifluoroethoxy)methyl]benzoyl]-1,3-cyclo-hexanedione] | entirely bleached |  |  |  |  |  |  |  |  |  |  |  |  |  |  |  |  |  |  | 
4 | B1 |  | darkest color | 0.39 | 4.1 | 4.6 | fully reversible inhibition | fully reversible inhibition | fully reversible inhibition | 4.0 | 5.1 | 6.0 | 1 | 13 | 25 | 34 | 6 | 18 | 26 | 20 | tolerance (pI50) Cmpd. 2 ([2]; inhibitor Cmpd. 2): >5.6
5 | B2 |  | darkest color | 0.41 | 4.0 | 4.6 | fully reversible inhibition | fully reversible inhibition | fully reversible inhibition | 4.1 | 5.2 | 5.9 | 7 | 14 | 43 | 21 | 4 | 22 | 19 | 26 | tolerance (pI50) TBT ([2]; inhibitor tembotrione (TBT)): >5.6
